# In US12018068B2, “Anti-O1 antibodies and uses thereof” (priority 2016, dated 2024):
# B1: KPE33: human anti-K. pneumoniae O1 antigen antibody, VH SEQ ID NO:8, VL SEQ ID NO:9, isolated as IgG2 from donor #262 (antibody, V domains shown)
# VH: EVQLVESGGALVQPGGSLRLSCAVSGFIFDDYAIHWVRRAPGKGLEWVSGIAWKSGATNYADSVKGRFAISRDNSKKSMYLQMNSLGTEDTALYYCTRRRASGDDTFYYFDYWGQGTLVTVSS
# VL: EIVLTQSPATLSLSPGERATLSCRASQNVNTNLAWYQQRPGQSPRLLIYDASTRAAGLPARFSGSGSGTDFTLTISSLEPEDFAVYYCQQCTNWRYTFGQGTKLEIK
# modifications: KPE33 VH Amino Acid Sequence; KPE33 VL Amino Acid Sequence
# B2: 54H7: mouse hybridoma anti-O1 antigen antibody (Ms IgG3), VH SEQ ID NO:47, VL SEQ ID NO:48 (antibody, V domains shown)
# VH: QVHLQQPGSELVRPGASVTLSCKASGYTFTNYWMQWVKQRPGQGLEWIGNIYPGSGNTNYDEKFRSKATLTVDTSSSTAYMHLTSLTSEDSAVYYCTRNWNFDYWGQGTTLTVSS
# VL: DIQMTQSPSSLSASLGERVSLTCRASQDIGSSLNWLQQEPDGTIKRLIYATSSLDSGVPKRFSGSRSGSEYSLTISSLEAEDFVDYYCLQHTDSPYTFGGGTKLELK
# modifications: 54H7 VH; 54H7 VL Amino Acid Sequence
# Tests used:
# LPS (O1) = test: LPS neutralization assay, RAW264.7-lux NF-κB luciferase reporter; assay type: cell-based, murine
# Method: LPS neutralization was assayed by utilizing a murine RAW264.7 macrophage cell line carrying a firefly luciferase reporter gene under the control of an NF-κB-responsive promoter (RAW264.7-lux). Serially diluted antibody stocks were mixed with LPS in a 1:1 ratio and incubated at 4° C. for 1 hr. Antibody/LPS mixture was then diluted 1:10 into assay plates containing pre-seeded RAW264.7-lux cells (5e3 cells/well), which were then placed at 37° C./5% CO2 for 2.5 hours. Following incubations, Steady Glo (Promega) was then added to each well and incubated for another 20 min protected from light. The relative light units (RLUs) were then measured using an Envision Multilabel plate reader (Perkin Elmer). The percentage of inhibition was determined by comparing RLU derived from assays with no antibodies to RLU obtained from anti-K. pneumoniae mAbs and a negative control mAb. Activation of TLR4 receptors by bacterial LPS leads to downstream activation of the NF-κB transcriptional regulator. A decrease in induction of NF-κB-responsive luciferase activity was used to quantify LPS neutralization activity by LPS mAbs.
# [1] = system: K. pneumoniae strain Kp4211 lux; test: high throughput serum bactericidal assay (SBA), complement-dependent killing; assay type: cell-based, Klebsiella pneumoniae; details: for complement-dependent killing in SBA: FIG. 1B
# Method: Peripheral blood mononuclear cells (PBMC) and sera were separated from buffy coats from healthy blood donors (N=567). PMBC were stored in liquid nitrogen whereas the plasma was stored at 4° C. To identify Klebsiella pneumoniae immune donors, all the available sera were tested for binding to Kp43816 and Kp4211 (LPS-O1 serotype), as well as to the unencapsulated mutant strain Kp43816ΔcpsB and the double mutant Kp43816ΔcpsBΔwaaL. […] In addition, all available sera were tested for their bactericidal activity in the presence of complement using a high-throughput serum bactericidal assay (SBA assay). Overnight cultures of luminescent K. pneumoniae strain 4211 (lux) were diluted in Muller Hinton II media to make OD600 to be 0.003. Equal volume of sera, 4211 lux, and baby rabbit serum (Cedarlane) were mixed in 384 well plates and incubated at 37° C. for two hours with shaking (250 rpm). The relative light units (RLUs) were then measured using an Envision Multilabel plate reader (Perkin Elmer). The percentage of killing was determined by comparing RLU derived from assays with no antibodies to RLU obtained from human sera.
# The susceptibility of the K. pneumoniae strain Kp4211 lux to serum and antibody dependent killing was measured by high throughput serum bactericidal assay (SBA). Overnight cultures of luminescent K. pneumoniae strain 4211 (lux) were diluted in Muller Hinton II media to make OD600 to be 0.003. Equal volume of antibodies, 4211 lux, and baby rabbit serum (Cedarlane) were mixed in 384 well plates and incubated at 37° C. for two hours with shaking (250 rpm). The relative light units (RLUs) were then measured using an Envision Multilabel plate reader (Perkin Elmer). The percentage of killing was determined by comparing RLU derived from assays with no antibodies to RLU obtained from anti-K. pneumoniae mAbs and a negative control mAb.
# [2] = system: K. pneumoniae capsule mutant strain 43816ΔcpsB Lux; test: bioluminescent opsonophagocytic killing (OPK) assay with HL-60 cells; assay type: cell-based, Klebsiella pneumoniae; details: for induction of OPK killing: FIG. 1C
# Method: (§1) PBMC donors were ranked based on their binding titers as well as their SBA and OPK activity. OPK assays were performed as described with modifications (Wang, Q. et al. Target-Agnostic Identification of Functional Monoclonal Antibodies Against Klebsiella pneumoniae Multimeric MrkA Fimbrial Subunit J Infect Dis. 2016 Jun. 1; 213(11):1800-8). Briefly, log phase cultures of luminescent K. pneumoniae capsule mutant strain 43816ΔcpsB (43816ΔcpsB Lux) were diluted to ˜2×10^6 cells/ml. Bacteria, diluted baby rabbit serum providing complement (Cedarlane, pre-absorbed with Kp43816ΔcpsB, 1:10), dimethylformamide (DMF) differentiated HL-60 cells, and sera were mixed in 384-well plates and incubated at 37° C. for two hours with shaking (250 rpm). The relative light units (RLUs) were then measured using an Envision Multilabel plate reader (Perkin Elmer). The percentage of killing was determined by comparing RLU derived from assays with no antibodies to RLU obtained from human sera.
# as §1, with “OPK” for “PBMC donors were ranked based on their binding titers as well as their SBA and OPK activity. OPK”, “al., J. Infect.” for “al. Target-Agnostic Identification of Functional Monoclonal Antibodies Against Klebsiella pneumoniae Multimeric MrkA Fimbrial Subunit J Infect”, “213:1800-8 (2016)).” for “2016 Jun. 1; 213(11):1800-8).”, “antibodies” for “sera”, “anti-K. pneumoniae mAbs and a negative control mAb.” for “human sera.”
# purified O1 LPS = test: ELISA binding to purified O1 LPS; parameters: species or system Klebsiella pneumoniae; details: FIG. 1A
# Method: Binding to purified O1 LPS was assayed by standard ELISA method. Briefly, ELISA plates (Nunc MaxiSorp) were coated with purified O1 LPS in PBS, pH 7.2, overnight at 4 C, followed by blocking the plates with PBS supplemented with 1% BSA (PBS-B). The coated plates were incubated with series dilutions of monoclonal antibodies for 1 h at room temperature. The plates were then washed with PBS containing 0.1% Tween-20 (PBS-T) before HRP-conjugated anti-human secondary antibodies were added for 1 hour followed by TMB TMB (3,3′,5,5′-Tetrametheylbenzidine) substrates. The absorbance of 450 nm was measured by microplate reader (Molecular Devices) and the data were plotted with Prism software.
# [3] = system: Kp1131115 wild type and Kp1131115ΔwbbYZ strain; test: FACS binding to Kp1131115 wild type and Kp1131115ΔwbbYZ; parameters: species or system Klebsiella pneumoniae; details: Kp1131115ΔwbbYZ vs wild type
# Excerpt: Klebsiella pneumoniae wbbYZ gene locus encodes D-Galactan II domain in LPS structure, which defines O1 serotype over O2.
# [4] = system: γδ T cell recruitment, K. pneumoniae Kp8045 infection; test: flow cytometry of γδTCR+ T cells in lungs of infected mice; assay type: in vivo; details: for early γδ T cell recruitment, prophylaxis: 1e4 CFU Kp8045, FIG. 14A; for γδ T cell recruitment, treatment 1 hour post infection: 1e4 CFU Kp8045, FIG. 14B
# Method: TLR4 signaling has been implicated in the recruitment and activation of γδ T cells, a key cell population in the innate immune defense of the mucosa. In order to examine the effect of LPS-neutralizing and LPS-non-neutralizing anti-O1 antibodies on γδ T cell recruitment, the percent of γδTCR^+ T cells was measured in the lungs of mice treated with anti-O1 antibodies and infected with K. pneumoniae (1e4 CFU Kp8045).
# [5] = system: K. pneumoniae (1e4 CFU Kp8045); test: survival of wild type and IL-17A−/− mice after lethal K. pneumoniae infection; assay type: in vivo, Klebsiella pneumoniae; details: prophylactic treatment
# Excerpt: γδ T cells are major producers of IL-17, which activates key antimicrobial pathways and the phagocytic function of neutrophils. […] Wild type and IL-17A−/− mice were prophylactically treated with c-IgG, 54H7, or KPE33 and infected with a lethal number of K. pneumoniae.
Molecule,LPS neutralization (LPS (O1)),SBA Kp4211lux IC50 [1] [ng/mL],complement-dependent killing in SBA [1],complement-dependent killing (SBA) in primary screening ([1]; strain Kp4211 (LPS-O1)),D Capsule OPK IC50 [2] [ng/mL],induction of OPK killing [2],binding to purified O1 LPS (purified O1 LPS),effect of wbbYZ gene knockout on binding [3],"early γδ T cell recruitment, prophylaxis [4]","γδ T cell recruitment, treatment 1 hour post infection [4]",survival of IL-17A−/− mice compared to wild type mice [5],LPS Neut (O1) IC50 (LPS (O1)) [ng/mL]
B1,did not,64,kill K. pneumoniae via complement-dependent killing,mediate complement-dependent killing,2.5,induced OPK killing,bound to purified O1 LPS,completely abolished the binding,not,did not inhibit recruitment,significant reduction in survival,–
B2,neutralized LPS,5.2,kill K. pneumoniae via complement-dependent killing,–,2.5,induced OPK killing,bound to purified O1 LPS,completely abolished the binding,inhibited,did not inhibit recruitment,No difference in survival,<0.1
